Here are results for four proteins from article PMC5268470.

A short description of data set [1]: [3H]-taurocholate uptake, Huh-7. Particulars: glycan lost; control: NTCP-WT.
Data set [2] can be described thus: cell surface biotinylation, immunoblot. As to conditions: glycan lost; control: NTCP-WT.
Data set [3] is described as follows: anti-HA confocal immunofluorescence, HepG2. As to conditions: glycan lost; control: NTCP-WT.
Data set [4] in a line: anti-HA IP-immunoblot, ImageJ quantification. As to conditions: glycan lost; control: NTCP-WT. On the technique in general: Immunoblotting shows a protein as a band on a membrane.
A short description of data set [5]: Myrcludex B-FITC cell-surface fluorescence, plate reader. As to conditions: glycan lost; control: NTCP-WT.
Data set [6] can be described thus: [3H]-taurocholate uptake, HepG2, untagged NTCP. Particulars: glycan lost; control: untagged NTCP-WT.
The nature of data set [7]: [3H]-taurocholate uptake, 2 min, HepG2. Particulars: glycan lost; control: NTCP-WT.
Data set [8] can be described thus: HBeAg ELISA, 3 days post infection, HepG2. Particulars: glycan lost; control: NTCP-WT.
A short description of data set [9]: intracellular cccDNA qPCR, 3 days post infection, HepG2. As to conditions: glycan lost; control: NTCP-WT.

B1: Na+-taurocholate cotransporting polypeptide (NTCP): NTCP-N5,11Q (protein)
parent chain: MEAHNASAPFNFTLPPNFGKRPTDLALSVILVFMLFFIMLSLGCTMEFSKIKAHLWKPKGLAIALVAQYGIMPLTAFVLGKVFRLKNIEALAILVCGCSPGGNLSNVFSLAMKGDMNLSIVMTTCSTFCALGMMPLLLYIYSRGIYDGDLKDKVPYKGIVISLVLVLIPCTIGIVLKSKRPQYMRYVIKGGMIIILLCSVAVTVLSAINVGKSIMFAMTPLLIATSSLMPFIGFLLGYVLSALFCLNGRCRRTVSMETGCQNVQLCSTILNVAFPPEVIGPLFFFPLLYMIFQLGEGLLLIAIFWCYEKFKTPKDKTKMIYTAATTEETIPGALGNGTYKGEDCSPCTA
On to B1, for which the “other: transport activity” value in [1] was “decreases”. Further, the localisation_or_trafficking entry is “abolishes” in data set [2], “changes” in data set [3] and “decreases” in [5]. The expression_or_secretion result in [4] was “decreases”.

B2: Na+-taurocholate cotransporting polypeptide (NTCP): untagged NTCP-N5,11Q (protein)
parent chain: MEAHNASAPFNFTLPPNFGKRPTDLALSVILVFMLFFIMLSLGCTMEFSKIKAHLWKPKGLAIALVAQYGIMPLTAFVLGKVFRLKNIEALAILVCGCSPGGNLSNVFSLAMKGDMNLSIVMTTCSTFCALGMMPLLLYIYSRGIYDGDLKDKVPYKGIVISLVLVLIPCTIGIVLKSKRPQYMRYVIKGGMIIILLCSVAVTVLSAINVGKSIMFAMTPLLIATSSLMPFIGFLLGYVLSALFCLNGRCRRTVSMETGCQNVQLCSTILNVAFPPEVIGPLFFFPLLYMIFQLGEGLLLIAIFWCYEKFKTPKDKTKMIYTAATTEETIPGALGNGTYKGEDCSPCTA
Consider B2, for which the “other: transport activity” value in [6] is on record as “decreases”.

B3: Na+-taurocholate cotransporting polypeptide (NTCP): NTCP-N11Q (protein)
parent chain: MEAHNASAPFNFTLPPNFGKRPTDLALSVILVFMLFFIMLSLGCTMEFSKIKAHLWKPKGLAIALVAQYGIMPLTAFVLGKVFRLKNIEALAILVCGCSPGGNLSNVFSLAMKGDMNLSIVMTTCSTFCALGMMPLLLYIYSRGIYDGDLKDKVPYKGIVISLVLVLIPCTIGIVLKSKRPQYMRYVIKGGMIIILLCSVAVTVLSAINVGKSIMFAMTPLLIATSSLMPFIGFLLGYVLSALFCLNGRCRRTVSMETGCQNVQLCSTILNVAFPPEVIGPLFFFPLLYMIFQLGEGLLLIAIFWCYEKFKTPKDKTKMIYTAATTEETIPGALGNGTYKGEDCSPCTA
Regarding B3, in [7], the “other: transport activity” value is “no change”. For the same protein, the localisation_or_trafficking entry in data set [2] is reported as “no change”; in [3], “no change”; in data set [5], “decreases”. Further, the “other: HBV receptor activity (infection)” value in data set [8] and in [9] was “no change” each time.

B4: Na+-taurocholate cotransporting polypeptide (NTCP): NTCP-N5Q (protein)
parent chain: MEAHNASAPFNFTLPPNFGKRPTDLALSVILVFMLFFIMLSLGCTMEFSKIKAHLWKPKGLAIALVAQYGIMPLTAFVLGKVFRLKNIEALAILVCGCSPGGNLSNVFSLAMKGDMNLSIVMTTCSTFCALGMMPLLLYIYSRGIYDGDLKDKVPYKGIVISLVLVLIPCTIGIVLKSKRPQYMRYVIKGGMIIILLCSVAVTVLSAINVGKSIMFAMTPLLIATSSLMPFIGFLLGYVLSALFCLNGRCRRTVSMETGCQNVQLCSTILNVAFPPEVIGPLFFFPLLYMIFQLGEGLLLIAIFWCYEKFKTPKDKTKMIYTAATTEETIPGALGNGTYKGEDCSPCTA
Take B4: in data set [7], the “other: transport activity” value is reported as “no change”. In addition, the localisation_or_trafficking entry is listed as “no change” in data set [2], “no change” in data set [3] and “decreases” in [5]. In addition, the “other: HBV receptor activity (infection)” value in data set [8] and in [9] was “no change” each time.
